Laboratory results as given in US20160058856A1.

Legend:
[1] = target: MHC class I molecule H-2K^d on CT26 target cells (mouse) (UniProt P01902); test: cell-based or functional assay
[2] = target: MHC class I molecule H-2L^d on CT26 target cells (mouse) (UniProt P01897); test: cell-based or functional assay
Chain of UniProt P01897 (P01897 25-362): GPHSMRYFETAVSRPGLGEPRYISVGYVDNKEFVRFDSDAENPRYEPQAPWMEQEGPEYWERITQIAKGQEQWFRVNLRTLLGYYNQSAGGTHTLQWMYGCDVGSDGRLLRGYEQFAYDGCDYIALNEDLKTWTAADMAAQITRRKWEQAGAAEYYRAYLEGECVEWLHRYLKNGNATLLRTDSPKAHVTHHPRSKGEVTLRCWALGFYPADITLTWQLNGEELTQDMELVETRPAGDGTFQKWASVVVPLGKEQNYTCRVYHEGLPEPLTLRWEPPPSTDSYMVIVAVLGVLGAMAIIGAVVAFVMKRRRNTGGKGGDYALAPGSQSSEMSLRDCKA

Chain of UniProt P01902 (P01902 22-368): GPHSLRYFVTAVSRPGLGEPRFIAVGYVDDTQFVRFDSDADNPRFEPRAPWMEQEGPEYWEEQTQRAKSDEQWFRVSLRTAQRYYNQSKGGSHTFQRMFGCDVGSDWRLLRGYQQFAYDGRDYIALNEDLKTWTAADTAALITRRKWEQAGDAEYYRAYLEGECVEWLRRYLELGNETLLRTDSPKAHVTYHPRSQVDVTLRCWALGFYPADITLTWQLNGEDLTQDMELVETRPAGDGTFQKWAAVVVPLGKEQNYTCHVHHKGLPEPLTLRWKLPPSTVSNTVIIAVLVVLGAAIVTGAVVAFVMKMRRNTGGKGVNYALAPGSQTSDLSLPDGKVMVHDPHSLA

Row | Substance | CTL activity (CFSE-based cytotoxicity assay, CT26 target cells pre-incubated with blocking antibodies) (fraction of the control values) [1] | CTL activity (CFSE-based cytotoxicity assay, CT26 target cells pre-incubated with blocking antibodies) (fraction of the control values) [2]
1 | anti-MHC class I monoclonal antibody H-2K^d: SF1-1.1.1 (eBioScience) | 0.33 | –
2 | anti-MHC class I monoclonal antibody H-2L^d: 28-14-8 (BioLegend) | – | 0.33
